Experimental data reported in PMC8065580, “A Lipid Bodies-Associated Galactosyl Hydrolase Is Involved in Triacylglycerol Biosynthesis and Galactolipid Turnover in the Unicellular Green Alga Chlamydomonas reinhardtii” (Plants, 2021).

Substrate: O=[N+]([O-])c1ccccc1O[C@@H]1O[C@H](CO)[C@H](O)[C@H](O)[C@H]1O
Experiment: purified protein
Assay type: biochemical, Chlamydomonas reinhardtii
Conditions: 30 mM magnesium chloride buffer, pH 7.3, 37 °C, MBP fusion

B1: CrGH (Chlamydomonas reinhardtii) (protein)
chain: MTGSGKPAANKATANGDGEPVRFLKGAAISVWQNSGDDDSNWTRFAKSRWPFRSFGVSAIRGKYNIDKCSDFWNNYERDIKLAADIGSTTFRFSIEWARIEPLRGVFDMEAVHRYHQMLDCMAAHGLVPNATLWHFVHPTWFEQAGGWTKEENIPAFVRFSVKCFEWFKDKITLWATFNEPTCYMFLAFIVGIAPPGRIMDLVTAGRMLSTMLKAHTATYRAIKAAPGGQAAQVGLVSHHITFEPQGTGILYGVSKVLSDWMTYWWGWDVVHHWMLTGEFVWKLPVLGVWQRWQDPAGRPPCDWWGINYYSRGIFSWYLAPSCRESEVMTDMYYPIYPEGLYKCIKRCSEFGIPMYITETGIADARDDRRALMIDSYMKATLRAVAEGCDVRGLYYWTLLDNLEWATGYTMKFGLYAWEPDGSVDRKLKEGSKTLVRYFKTLPDDLAGVRAAARQVQGQLGEDLGVEAALEEEGVTRVAAGGKLVVGEAAGKGGEAEGRKAVGMVAIG
notes: full-length CDS (1527-bp ORF, about 508 residues) in pMAL-c5x, MBP fusion, about 98 kDa, E. coli BL21(DE3), amylose resin; tag cleavage not mentioned; GH family 1, motifs TFNEP and ITETG
Km: 13.98 µM
kcat: 3.62 s⁻¹
